Earlier results on one substance are cited in PMC10342495.

The target of this series is IL-18 (Homo sapiens) (UniProt Q14116).

pKd: −log10 of the molar value.

Sequence of IL-18BP (O95998 31-194): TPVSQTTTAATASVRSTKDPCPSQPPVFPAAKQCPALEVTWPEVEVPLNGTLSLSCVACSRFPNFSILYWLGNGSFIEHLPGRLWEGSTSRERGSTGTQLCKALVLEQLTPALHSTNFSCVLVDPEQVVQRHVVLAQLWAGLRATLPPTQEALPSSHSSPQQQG
Sequence of IL-18 (Homo sapiens) (Q14116 37-193): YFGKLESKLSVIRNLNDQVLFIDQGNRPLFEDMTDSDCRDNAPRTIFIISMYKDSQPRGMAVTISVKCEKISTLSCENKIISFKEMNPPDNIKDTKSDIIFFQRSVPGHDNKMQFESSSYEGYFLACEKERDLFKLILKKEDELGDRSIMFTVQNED

As for IL-18BP (from UniProt O95998), the pKd was 9.40.
